Patent US7666644B2, “Glyphosate-N-acetyltransferase (GAT) genes” (Verdia, Inc., priority 2004, dated 2010)

Columns and labels:
O=C(O)CNCP(=O)(O)O = experiment: Standard spectrophotometric kcat and KM determination (Example 7); type: biochemical; conditions: other: 20 mM HEPES pH 6.8, 10% ethylene glycol, 0.2 mM acetyl CoA, about 23° C.
Method: KM was calculated from the initial reaction rates obtained from concentrations of glyphosate ranging from 0.125 to 10 mM, using the Lineweaver-Burke transformation of the Michaelis-Menten equation. kcat/KM was determined by dividing the value determined for kcat by the value determined for KM.

[1] = type: physicochemical; conditions: buffer, pH 7.2
Method: The half lives of several GAT polypeptides were also measured at 37.5° C. according to the following procedure. GAT polypeptides 401 (SEQ ID NO: 6), 17-15H3 (SEQ ID NO: 601), 20-8H12 (SEQ ID NO: 739), 22-13B12 (SEQ ID NO: 781), 22-15B4 (SEQ ID NO: 946) and 22-18C5 (SEQ ID NO: 795) were incubated in a matrix of 25 mM Hepes, pH 7.2, 10 mM KCl and 10% methanol (“HKM”). At various timepoints, aliquots were withdrawn and assayed in triplicate at 22° C. using the continuous spectrophotometric assay described in Example 7 using saturating concentrations of glyphosate (20 mM for 401, 5 mM for the rest) and AcCoA (167 uM). The standard error at each time point averaged about 2.9%. GAT activity was plotted as a function of incubation time and the data was fitted to a curve for exponential decay (y=e^−x), where y is enzyme activity and x is time in hours, from which half life was calculated.

soybean plants = experiment: T0 soybean greenhouse glyphosate spray, plant discoloration scores; type: in vivo
Method: Soybean plants expressing GAT variant transgenes were produced using the method of particle gun bombardment (see Klein et al. (1987) Nature 327:70-73) using a DuPont Biolistic PDS1000/He instrument. The selection agent used during the transformation process was hygromycin. Either the hygromycin selectable marker gene remained in the transgenic events or the hygromycin gene was excised by methods known in the art. DNA fragments were prepared with a synthetic constitutive promoter, a GAT variant and PinII terminator. The selectable marker gene, comprising the 35S CaMV promoter, HPT gene and NOS terminator, was cobombarded with the GAT gene variant as described above. Bombarded soybean embryogenic suspension tissue was cultured for one week in the absence of selection agent. Embryogenic suspension tissue was placed in liquid selection medium for 6 weeks. Putative transgenic suspension tissue was sampled for PCR analysis to determine the presence of the GAT gene. Putative transgenic suspension culture tissue was maintained in selection medium for 3 weeks to obtain enough tissue for plant regeneration. Suspension tissue was matured for 4 weeks using standard procedures; matured somatic embryos were desiccated for 4-7 days and then placed on germination induction medium for 2-4 weeks. Germinated plantlets were transferred to soil in cell pack trays for 3 weeks for acclimatization. Plantlets were potted to 10-inch pots in the greenhouse for evaluation of glyphosate resistance.
To determine the level of glyphosate resistance of transgenic soybeans expressing the GAT variant transgenes, T0 plants were sprayed with glyphosate (Roundup ULTRA MAX™) in the greenhouse. Plant resistance levels were evaluated by […] • 7=minor leaf/stem discoloration • 5=worse leaf/stem discoloration • 3=severely discolored plant or dying plant • 1=dead plant
One to four plants were sent to the greenhouse from each independent transgenic event. An additional 1-2 plants per event were grown in controlled environment growth chambers for seed production and were not sprayed with glyphosate. The greenhouse plants were sprayed at 1×, 2× or 4× glyphosate (1× glyphosate=26 ounces/acre of RoundUp ULTRA MAX™) 3-4 weeks after transfer to soil. The T0 plant discoloration scores with 2× and 4× spray rates are shown in Table 10 and Table 11, respectively.

tobacco plants = experiment: Herbicide spray tests of GAT expressing tobacco plants; type: in vivo, Nicotiana tabacum
Method: Tobacco shoots generated as described in EXAMPLE 9 were excised from the explants and transferred to basal root induction (BRI) medium composed of half-strength Murashige and Skoog (MS) medium, pH 5.7, with 1.5% sucrose, 0.3% Gelrite, 0-200 uM glyphosate and 400 ug/ml Timentin. Rooted plants and axillary shoots were clonally propagated by cutting the stem and transferring it to fresh BRI medium until the desired number of clones was obtained. Rooted plants were carefully removed from the solid medium. Prior to placing the plants into small pots of soil, the roots were washed to remove any remaining Gelrite. A protective plastic cover was kept over the plants for at least one week until the plants were well established.
To determine if GAT expressing tobacco plants could tolerate simulated field rate sprays of glyphosate, clonal lines of several events per GAT variant were tested. A typical test was set up as follows: One clone from each event was sprayed with 1 ml of solution containing the isopropylamine salt of glyphosate (Sigma P5671) and 0.125% Triton X-100, pH 6.8 such that the amount of active ingredient sprayed was equivalent to that present in commercial glyphosate products. For example, to achieve 32 oz/acre (1×) of herbicide containing 40% active ingredient (“ai”), 2.4 ul of 40% ai formulation was diluted into 1 ml water and sprayed on a plant in a 4-inch square pot (16 in^2). A mock application (0×) with surfactant only was also included. In some cases a second spray was applied 1-4 weeks later. Plants were kept in controlled growth rooms at 25° C. and 70% humidity with 16 hr light.
Seed-grown wild type plants were also sprayed. […] All 0× plants were healthy, including the non-GAT control plants. Three weeks later all of the surviving plants were sprayed with an 8× dose.

[2] = GAT activity with substrate L-serine (DTNB); type: biochemical
Method: (§1) GAT activity of several GAT polypeptides of the present invention was evaluated with respect to a number of amino acid substrates. The GAT polypeptide, AcCoA and amino substrate were incubated in 25 mM Hepes, pH 6.8, 10% ethylene glycol in the wells of a 96-well polystyrene plate. After 30 minutes, the reactions were stopped by the addition of 30 μl of 10 mM 5,5′-dithiobis-2-nitrobenzoate (DTNB) in 500 mM Tris, pH 7.5. After 2 minutes, absorbance was read at 412 nm in a Spectramax Plus plate reader (Molecular Devices, Sunnyvale, Calif.).

[3] = GAT activity with other L-amino acid substrates (DTNB); type: biochemical
Method: as §1

[4] = GAT activity with substrate L-aspartate (DTNB); type: biochemical
Method: as §1

[5] = 10 days after 2X glyphosate (1× = 26 ounces/acre)

## GAT polypeptide (glyphosate-N-acetyltransferase), SEQ ID NO:457 (Bacillus licheniformis DSM 13 = ATCC 14580; A28V/E119K/E65Q/E67Q/E68K/G37R/I132T/I135V/I15L/I2L/K101R/K144R/K58Q/L145I/L97I/R18K/R92K/T89S/V114A/Y130F/Y45F)
O=C(O)CNCP(=O)(O)O
  Km: 0.1 mM
  kcat: 118 min⁻¹

## GAT polypeptide (glyphosate-N-acetyltransferase), SEQ ID NO:300 (Bacillus licheniformis DSM 13 = ATCC 14580; A39T/E119K/E67Q/E68K/H57N/I132T/I135V/K58Q/L35S/S62P/V114A)
O=C(O)CNCP(=O)(O)O
  Km: 0.65 mM
  kcat: 296 min⁻¹

B1: 22-15B4: GAT enzyme SEQ ID NO:789; Table 9 prints SEQ ID NO: 946 (protein)
chain: MIEVKPINAEDTYDLRHRVLRPNQPIEACMFDSDLMRSAFHLGGFYGGKLISVASFHQAEHTELQGQKQYQLRGVATLEGYREQKAGSSLVKHAEEILRKRGVDLLWCNARTSASGYYKKLGFSEQGEVFDTPPVGPHILMYKRIT
modifications: D_S00397832_GAT22-15B4
[1]
  Half-life: 26 h

B2: 20-8H12: evolved GAT; polypeptide SEQ ID NO:739, gene SEQ ID NO:738 (protein)
chain: MIEVKPINAEDTYELRHRVLRPNQPIEACIFESDLMRGAFHLGGFYGGRLISVASFHQAEHSELQGQKQYQLRGMATLEGYREQKAGSSLVKHAEEILRKRGADLLWCNARTSASGYYKKLGFSEQGEVFDTPPVGPHILMYKRIT
modifications: D_S00341806_GAT20-8H12
[1]
  Half-life: 54 h

B3: 22-18C5: GAT polypeptide, SEQ ID NO: 795 (protein)
chain: MIEVKPINAEDTYDLRHRVLRPNQPIEACMFESDLTRGAFHLGGFYGGKLISVASFHQAEHSELQGQKQYQLRGVATLEGYREQKAGTSLVKHAEEILRKRGVDLLWCNARTSASGYYRKLGFSEQGEVFDTPPVGPHILMYKRIT
modifications: D_S00398097_GAT22-18C5
[1]
  Half-life: 43 h

B4: 0—5D3: evolved GAT gene, SEQ ID NO:193 (nucleic acid)
DNA: ATGCTAGAGGTGAAACCGATTAACGCAGAGGATACCTATGAACTAAGGCATAGAATACTCAGACCAAACCAGCCGATAGAAGCGTGTATGTATGAAAGCGATTTACTTCGTGGTGCATTTCACTTAGGCGGCTATTACAGGGGCAAACTGATTTCCATAGCTTCATTCCACCAGGCCGAGCACTCAGAACTCCAAGGCCAGAAACAGTACCAGCTCCGAGGTATGGCTACCTTGGAAGGTTATCGTGAGCAGAAAGCGGGATCGAGTCTAATTAAACACGCTGAAGAAATTCTTCGTAAGAGGGGGGCGGACTTGCTTTGGTGTAATGCGCGGACATCCGCCTCAGGCTACTACAAAAAGTTAGGCTTCAGCGAGCAGGGAGAGATATTTGAAACGCCGCCAGTAGGACCTCACATCCTGATGTATAAAAGGATCACATAA
modifications: Synthetic nucleic acid sequence; 0_5D3
Soybean plants; 10 days after 2X glyphosate
  % EVENTS @ 3-6: 11% (3)
Soybean plants; [5]
  % EVENTS @ 7-8: 15% (4)
Tobacco plants; 0.5, 2 or 4× glyphosate (1× = 32 oz/acre of 40% ai), clonally propagated events, average of 5 leaves
  outcome two weeks after glyphosate spray: survived the spraying procedure without signs of glyphosate damage
Tobacco plants; 8× glyphosate three weeks later
  outcome after second spray with an 8× dose: survived

B5: 401: native GAT polypeptide corresponding to SEQ ID NO: 6 (protein, listed as Bacillus licheniformis)
chain: MIEVKPINAEDTYEIRHRILRPNQPLEACMYETDLLGGAFHLGGYYRGKLISIASFHKAEHSELEGEEQYQLRGMATLEGYREQKAGSTLIRHAEELLRKKGADLLWCNARTSVSGYYEKLGFSEQGEVYDIPPIGPHILMYKKLT
modifications: ST401 GAT
[1]
  Half-life: 14 h
[2]
  activity with L-serine compared with glyphosate: about 4.7 times
[2]; Substrate Serine
  kcat/KM % of glyph: 471%
[3]
  number of amino acids with detectable activity, in addition to glyphosate: 12
[3]; L-alanine, 1 mM
  activity relative to activity towards glyphosate: 33%
[3]; L-asparagine, 1 mM
  activity relative to activity towards glyphosate: 27%
[3]; L-cysteine, 1 mM
  activity relative to activity towards glyphosate: 50%
[3]; L-glutamate, 1 mM
  activity relative to activity towards glyphosate: 51%
[3]; L-glutamine, 1 mM
  activity relative to activity towards glyphosate: 32%
[3]; L-histidine, 1 mM
  activity relative to activity towards glyphosate: 10%
[3]; L-threonine, 1 mM
  activity relative to activity towards glyphosate: 250%
[3]; L-tyrosine, 1 mM
  activity relative to activity towards glyphosate: 18%
[3]; L-valine, 1 mM
  activity relative to activity towards glyphosate: 12%
[3]; N-methyl derivatives of L-aspartate (2 mM), L-alanine (10 mM) and glycine (sarcosine, 10 mM)
  activity on N-methyl derivatives of amino acids: No detectable activity
[3]; glycine, 1 mM
  activity relative to activity towards glyphosate: 21%
[3]; the other protein amino acids, either undetected or less than 3%
  activity relative to activity towards glyphosate: less than 3%
[4]
  activity with L-aspartate compared with glyphosate: about as active
[4]; Substrate Aspartate
  kcat/KM % of glyph: 85.5%

B6: 18-28D9c: GAT transgene, SEQ ID NO:824 (nucleic acid)
DNA: ATGATAGAGGTGAAACCGATTAACGCAGAGGATACCTATGAACTAAGGCATAGAATACTCAGACCAAACCAGCCGATAGAAGCGTGTATGTTTGAAAGCGATTTACTTCGTGGTGCATTTCACTTAGGCGGCTTTTACAGGGGCAAACTGATTTCCATAGCTTCATTCCACCAGGCCGAGCACTCGGAACTCCAAGGCCAGAAACAGTACCAGCTCCGAGGTATGGCTACCTTGGAAGGTTATCGTGAGCAGAAAGCGGGATCAACTCTAGTTAAACACGCTGAAGAAATCCTTCGTAAGAGGGGGGCGGACATGCTTTGGTGTAATGCGAGGACATCCGCCTCAGGCTACTACAAAAAGTTAGGCTTCAGCGAGCAGGGAGAGATATTTGACACGCCGCCAGTAGGACCTCACATCCTGATGTATAAAAGGATCACATAA
modifications: Synthetic nucleic acid sequence; CDS (1)...(441); 18-28D9c
Soybean plants; 10 days after 2X glyphosate
  % EVENTS @ 3-6: 74% (23)
Soybean plants; [5]
  % EVENTS @ 7-8: 8% (3)
Soybean plants; 10 days after 4X glyphosate
  % EVENTS @ 3-6: 43% (10)
  % EVENTS @ 7-8: 8% (2)
